This is an account of results in patent US20110229525A1 (VANDERBILT UNIVERSITY, published 2011).

The target in the assay is JAK2 (UniProt Q62120 1-1132). In words: cell-based or functional assay.
Sequence of JAK2 (Q62120 whole entry): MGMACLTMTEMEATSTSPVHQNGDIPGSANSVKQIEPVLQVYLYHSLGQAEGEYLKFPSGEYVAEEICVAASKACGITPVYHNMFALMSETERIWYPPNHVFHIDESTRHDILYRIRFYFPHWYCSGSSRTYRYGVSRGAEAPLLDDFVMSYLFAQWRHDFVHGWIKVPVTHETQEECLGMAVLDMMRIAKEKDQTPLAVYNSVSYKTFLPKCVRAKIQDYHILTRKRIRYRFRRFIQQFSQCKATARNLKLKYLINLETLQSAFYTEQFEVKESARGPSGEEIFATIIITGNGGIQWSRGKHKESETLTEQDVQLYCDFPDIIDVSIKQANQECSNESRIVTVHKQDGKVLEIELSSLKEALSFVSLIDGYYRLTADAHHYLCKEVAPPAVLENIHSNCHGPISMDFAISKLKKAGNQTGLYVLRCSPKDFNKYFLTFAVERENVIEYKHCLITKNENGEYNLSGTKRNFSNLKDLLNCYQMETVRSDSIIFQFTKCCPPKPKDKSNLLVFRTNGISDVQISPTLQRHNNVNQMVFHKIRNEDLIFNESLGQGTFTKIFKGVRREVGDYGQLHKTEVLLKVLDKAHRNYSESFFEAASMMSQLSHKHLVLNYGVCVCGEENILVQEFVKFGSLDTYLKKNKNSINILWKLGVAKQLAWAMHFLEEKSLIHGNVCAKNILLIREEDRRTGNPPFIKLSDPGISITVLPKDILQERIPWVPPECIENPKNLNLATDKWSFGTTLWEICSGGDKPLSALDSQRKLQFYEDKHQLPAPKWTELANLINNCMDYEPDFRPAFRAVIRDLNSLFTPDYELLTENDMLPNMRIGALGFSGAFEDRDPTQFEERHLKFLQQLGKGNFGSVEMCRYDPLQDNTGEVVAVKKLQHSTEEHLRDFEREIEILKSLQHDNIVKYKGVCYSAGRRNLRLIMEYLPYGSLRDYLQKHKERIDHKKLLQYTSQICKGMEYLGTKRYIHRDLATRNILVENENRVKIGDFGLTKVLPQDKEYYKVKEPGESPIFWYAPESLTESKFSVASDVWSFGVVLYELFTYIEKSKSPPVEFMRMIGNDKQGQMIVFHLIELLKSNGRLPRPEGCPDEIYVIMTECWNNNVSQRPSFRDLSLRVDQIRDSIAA

B1: CP-SOCS1 (recombinant cell-penetrating murine SOCS1 with MTM and 6x histidine tag) (other, human;murine, UniProt P08620 7-22, looked up, not shown: small tags and cut ends)
chain: AAVALLPAVLLALLAPMVARNQVAADNAISPAAEPRRRSEPSSSSSSSSPAAPVRPRPCPAVPAPAPGDTHFRTFRSHSDYRRITRTSALLDACGFYWGPLSVHGAHERLRAEPVGTFLVRDSRQRNCFFALSVKMASGPTSIRVHFQAGRFHLDGSRETFDCLFELLEHYVAAPRRMLGAPLRQRRVRPLQELCRQRIVAAVGRENLARIPLNPVLRDYLSSFPFQI
Turning to B1, the “concentration of CP-SOCS1 that inhibited phosphorylation of STAT1 by 50% (IC50), AMJ2.C8 macrophages stimulated with IFN-g and LPS” value is under 1900 µM.
